According to US6710030B1, “Contortrostain (CN) and methods for its use in preventing metastasis and other conditions” (University of Southern California, priority 1993, dated 2004):
Read-outs that look alike come from different tables or passages of the source.

What was measured:
[1] = system: human platelet rich plasma; test: ADP-induced platelet aggregation in human platelet rich plasma; assay type: cell-based
Method: Column fractions obtained during purification were assayed for activity using fresh human platelet rich plasma (PRP) prepared from blood obtained from human volunteers who had had no medication for at least two weeks. Blood (36 ml) was drawn into 4 ml of 0.1 M citrate and centrifuged at 150×g for 20 minutes. The supernatant, PRP, was removed and the remaining blood was centrifuged at 10,000 RPM to obtain platelet poor plasma (PPP). Platelet counts were adjusted to 250,000 platelets/μl using a Coulter counter. A Helena four channel aggregometer was used to monitor platelet aggregation. Inhibition of ADP-induced platelet aggregation was monitored at 37° C. by adding venom fractions one minute prior to the addition of ADP (10-20 μM final concentration). […] Rabbit and canine PRP was prepared by the same procedure and used in the studies described below.
CN inhibited ADP-induced platelet aggregation in human, canine, and rabbit PRPs (FIG. 6). Empty circles represent human platelet rich plasma, solid circles represent canine PRP, and empty triangles represent rabbit PRP. Varying concentration of CN were preincubated for one minute with PRP prior to the addition of ADP.

MDA-MB-435 cells = test: Growth of MDA-MB-435 cells in vitro on Matrigel-coated plates; assay type: cell-based, human
Method: MDA-MB-435 cells (0.3×10^6/ml) were added to each well of a 6-well cell culture plates coated with 1/100 dilution of Matrigel . Cells were then treated with CN at various concentration. Growth curves of MDA-MB-435 cells in vitro without CN (circles), and with CN at 100 nM (triangles), and 500 nM (diamonds) are illustrated. Six-well cell culture plates coated with Matrigel (1/100 dilute) were seeded with 3 ml of MDA-MB-435 cell suspension (0.3×10^6/ml). Cell density was determined every 24 hours.

OVCAR-5 cells [2] = test: Invasion of OVCAR-5 cells through Matrigel, modified Boyden chamber; assay type: cell-based, human; details: 1000 nM
Method: Modified Boyden chambers were employed to measure invasion. Filters of 12 mm Boyden chamber with 12 μm pore size (Corning Costar, Cambridge, Mass.) were coated with 1:50 dilution of Matrigel in serum free medium. Cells (2.5×10^5 cells in 200 μl of medium) pre-treated with contortrostatin, antibodies against different integrins, or vehicle (control), were applied to the upper wells. HT1080 conditioned medium was added to the bottom well. The cells were incubated at 37° C. for 8 hr., at which point cells on the top side of the membrane were removed with a wet cotton swab. Cells which invaded through the filter membrane were fixed and stained with Diff-Quik™ staining kit (Dade Diagnostics of P. R. Inc., Aguada, Puerto Rico). The membranes were removed from the holder, and were mounted on slides. Migration was quantitated by determining the number of cells in five randomly selected high power vision field using a microscope. Each inhibitor concentration was tested in duplicate, and the experiments were repeated three times to confirm results.

OVCAR-5 cells [3] = test: Adhesion of OVCAR-5 cells to vitronectin coated plate; assay type: cell-based, human
Excerpt: FIG. 21. CN and other antagonists of αvβ5 inhibits adhesion of OVCAR-5 cells to vitronectin. Adhesion of cancer cells to the matrix is one of the critical steps of cancer spreading and metastasis. It is well established that integrin αvβ5 mediates adhesion of cells to vitronectin.

purified αvβ5 = purified αvβ5 (Homo sapiens, UniProt P06756+P18084); test: Solid-phase binding of contortrostatin to purified αvβ5 (modified ELISA); details: 100 ng αvβ5 per well
Method: Experiment 3: Detection of the binding of contortrostatin to αvβ5: Direct evidence that contortrostatin binds to αvβ5 was collected by solid-phase binding assay using purified αvβ5 and a modified ELISA. Soluble αvβ5 (100 ng) was immobilized on wells of a 96-well plate at 4° C. overnight. Excess protein was washed off, and unbound sites were blocked with 1% BSA/PBS. Contortrostatin at various concentrations was allowed to bind to the coated plate at room temperature for one hour. After three washes with PBS, the bound contortrostatin molecules were detected with 1:1,000 antiserum against contortrostatin. Goat anti-rabbit antibody conjugated with alkaline phosphotase was used as a secondary antibody. The bound antibodies were quantitated by applying substrate disodium p-nitrophenyl phosphate (pNPP) and determining the light absorbance at 405 nm 15 minutes after the initiation of the chromagenic reaction. The background is defined by the binding of antiserum against the disintegrin to immobilized αvβ5. Specific binding is obtained by substrating the background from the total binding. Analyses of each concentration of ligand were performed in triplicate.

OVCAR-5 cells [4] = test: Phosphotyrosine immunoblot, OVCAR-5 cells; assay type: cell-based, human; details: data not shown
platelets = test: Platelet release reactions (granule contents); assay type: cell-based
Excerpt: Platelets comprise a plurality of different granules, including alpha granules and dense granules, whose contents are released when the platelets aggregate. […] Thus, normal platelet physiological processes are necessarily further perturbed with administration of applaggin.

[5] = system: adhesion formation during wound healing; test: Rabbit model of adhesion formation (uterine horns); assay type: in vivo; details: Alzet pumps, 10 μl/hr (36 μg/ml)
Method: In preliminary studies in a rabbit model of adhesion formation, abrasion and devascularization of the uterine horns of rabbits were employed to induce adhesion formation during wound healing in untreated animals [Rodgers, K. et al., Int. J. Fertil. 35:40 (1990)]. Alzet pumps were employed to continuously deliver CN at a rate of 10 μl/hr (36 μg/ml). […] Therefore, compositions and methods for preventing adhesion formation whereby an amount of CN effective to prevent adhesion formation is administered to a patient in need of such treatment are also contemplated as within the scope of the present invention.

canine platelets = details: cited from earlier work
[6] = system: c-Ha-ras transfected rat embryo (4R) cells; details: cited from earlier work

Chain of purified αvβ5 (P06756 31-889 limits assumed): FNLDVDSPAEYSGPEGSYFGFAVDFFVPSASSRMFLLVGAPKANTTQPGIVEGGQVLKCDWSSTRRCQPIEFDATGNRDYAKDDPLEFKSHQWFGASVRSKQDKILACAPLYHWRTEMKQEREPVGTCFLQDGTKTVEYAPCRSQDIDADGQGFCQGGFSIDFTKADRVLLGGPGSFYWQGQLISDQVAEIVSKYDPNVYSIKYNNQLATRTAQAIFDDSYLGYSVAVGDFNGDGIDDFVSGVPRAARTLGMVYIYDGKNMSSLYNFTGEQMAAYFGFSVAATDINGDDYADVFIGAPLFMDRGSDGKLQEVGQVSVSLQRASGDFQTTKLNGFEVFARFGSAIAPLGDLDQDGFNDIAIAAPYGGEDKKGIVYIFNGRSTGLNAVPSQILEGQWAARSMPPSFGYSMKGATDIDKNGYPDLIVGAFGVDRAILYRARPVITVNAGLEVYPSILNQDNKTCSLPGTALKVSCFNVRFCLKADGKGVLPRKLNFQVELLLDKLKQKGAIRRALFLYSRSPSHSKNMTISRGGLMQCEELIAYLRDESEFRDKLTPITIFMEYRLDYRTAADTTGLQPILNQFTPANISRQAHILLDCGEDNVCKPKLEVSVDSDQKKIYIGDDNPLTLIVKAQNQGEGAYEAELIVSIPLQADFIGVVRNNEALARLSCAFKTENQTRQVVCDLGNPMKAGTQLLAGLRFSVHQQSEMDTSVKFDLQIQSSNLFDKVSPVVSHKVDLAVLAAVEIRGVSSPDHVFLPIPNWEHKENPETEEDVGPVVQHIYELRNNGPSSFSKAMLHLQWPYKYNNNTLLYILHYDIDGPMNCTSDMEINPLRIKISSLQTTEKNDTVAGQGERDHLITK
Chain of purified αvβ5 (P18084 24-799): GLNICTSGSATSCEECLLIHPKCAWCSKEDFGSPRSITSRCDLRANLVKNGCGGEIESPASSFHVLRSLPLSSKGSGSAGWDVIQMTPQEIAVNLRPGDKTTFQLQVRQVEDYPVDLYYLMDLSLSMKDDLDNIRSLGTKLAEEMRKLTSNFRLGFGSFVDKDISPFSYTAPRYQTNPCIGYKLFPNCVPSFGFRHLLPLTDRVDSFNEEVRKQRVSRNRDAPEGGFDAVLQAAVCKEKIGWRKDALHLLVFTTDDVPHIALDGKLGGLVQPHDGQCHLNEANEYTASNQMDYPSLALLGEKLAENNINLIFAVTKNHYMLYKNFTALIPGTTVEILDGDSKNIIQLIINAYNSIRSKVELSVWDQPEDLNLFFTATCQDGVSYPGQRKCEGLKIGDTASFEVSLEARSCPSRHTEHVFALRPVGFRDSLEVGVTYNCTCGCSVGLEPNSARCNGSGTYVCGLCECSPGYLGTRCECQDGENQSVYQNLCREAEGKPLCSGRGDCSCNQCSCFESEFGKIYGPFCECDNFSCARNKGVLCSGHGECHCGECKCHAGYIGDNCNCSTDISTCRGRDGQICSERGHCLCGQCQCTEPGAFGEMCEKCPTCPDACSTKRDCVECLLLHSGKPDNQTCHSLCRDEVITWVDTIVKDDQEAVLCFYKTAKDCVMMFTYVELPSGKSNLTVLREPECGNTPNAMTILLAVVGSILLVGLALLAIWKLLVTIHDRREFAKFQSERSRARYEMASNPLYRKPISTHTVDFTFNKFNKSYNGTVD

B1: contortrostatin (protein)
chain: DAPANPCCDAATCKLTTGSQCADGLCCDQCKFMKEGTVCRRARGDDLDDYCNGISAGCPRNPFHA
With B1 the “IC50 of ADP-induced human platelet aggregation” value ([1]; 10 μM ADP, preincubated one minute) was 0.73 µg/mL, the “platelet aggregation inhibitory activity after reduction of the disulfide bonds” value ([1]; even at concentrations ten times the IC50) was “completely eliminated platelet aggregation inhibitory activity” and the “cytotoxicity during in vitro culture” value (MDA-MB-435 cells) was “no direct cytotoxicity”. For the same molecule, the “proliferation of MDA-MB-435 cells” value (MDA-MB-435 cells; CN at 100 nM and 500 nM) was “proliferate equally well as control cells”, the “invasion of OVCAR-5 cells through Matrigel” value (OVCAR-5 cells [2]) was “almost completely inhibited invasion” and the “adhesion of OVCAR-5 cells to vitronectin” value (OVCAR-5 cells [3]) was “inhibited”. For the same molecule, the “binding to immobilized αvβ5” value (purified αvβ5) was “binds to αvβ5 in a dose-dependent and saturable manner”, the tyrosine phosphorylation (OVCAR-5 cells [4]) was “do not show significant enhancement of tyrosine phosphorylation” and the platelet release reactions (platelets) was “does not inhibit platelet release reactions”. For the same molecule, the adhesion formation [5] was “decreased adhesion formation”, the “50% inhibition (IC50) of platelet aggregation, canine platelets” value (canine platelets) was 2.2 µg/mL and the “Inhibition of 4R cell binding to fibronectin” value ([6]; CN at 1 μg/ml) was 46%. The “Inhibition of 4R cell binding to fibronectin” value ([6]; CN at 5 μg/ml) was 88%.
